Source: US20210379046A1, “Methods of Treating Diseases Using Kinase Modulators” (Memorial Sloan Kettering Cancer Center, priority 2018, published 2021)

Target: non-WT1-derived peptide expressed on TPC1 cells in complex with HLA-A*02:01 (human)
Assay: cell-based or functional assay

improvement of specific lysis, chromium-51 release ADCC, TPC1 cells pretreated with 100 nM trametinib: 10%
percent specific lysis, chromium-51 release ADCC with human PBMCs, 50:1 E:T, TPC1 cells pretreated with 10 nM AST487: 20%
percent specific lysis, chromium-51 release ADCC with human PBMCs, 50:1 E:T, TPC1 cells pretreated with DMSO: 3%
Substance: ESK1 (antibody)
